System: MS2 coat protein
Assay: apparent KD of MS2 coat protein; higher = weaker reporter binding
Conditions: Eterna round: R107
How it was run: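 On-chip transcription from Illumina sequencing clusters produced the designed RNA switches. These were titrated with SNAP-549-labelled MS2 coat protein (twofold steps, 0.7 or 1.5 nM to 3 µM) in 100 mM Tris-HCl pH 7.5, 80 mM KCl, 4 mM MgCl2, with or without constant ligand. The apparent KD given is the per-design median of normalised cluster binding-curve fits.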

[1] = input ligand: theophylline 20 uM
[2] = input ligand: theophylline 2 mM
[3] = input ligand: tryptophan 2.4 mM

Sequence | apparent KD of MS2 coat protein (input ligand: arginine 13.2 mM) [µM] | apparent KD of MS2 coat protein (input ligand: none) [µM] | apparent KD of MS2 coat protein [1] [µM] | apparent KD of MS2 coat protein [2] [µM] | apparent KD of MS2 coat protein [3] [µM]
GUCCUCAGCCGAAGGAGCGCUAGAAGAUGACAUGAGGAUCACCCAUGUGUGUGAUGUGGCUAGCAGGUAGGUCGCGGAGAGGAUU [Exclusion - Arginine B (Freestyle 16)] | 0.0198 | 0.0229 | 0.0371 | 0.028 | 0.0206
GUUAUUAGAAAACUAAUAACAGUGGGUGAACGAGGACCGGUACGGCCGCCACUCGGACAUGAGGAUCACCCAUGUCCAUGUGAAA [AstrosExyTryA#4] | 0.0121 | – | 0.0158 | 0.0165 | –
GUUGGAUUCUCGGCCGCCACUGAGAGAGUCAUGUGAACAUGAGGAUCACCCAUGUAAUAUAUAUACAGGACCGGGAGGGUUGUAA [4.K] | 0.0219 | 0.0202 | 0.0358 | 0.0226 | 0.0148
UAAAACAUGAGGAUCACCCAUGUAAUUGAUACCAGAGUGAUGAUCCUCCCUUGGCAGCAAAACGCUGAUUGAUUACAAUCAGCGA [Mat - Same State Theophlline A - Mod of Eli - D24] | 0.0368 | – | 0.169 | – | 0.0425
UAAACUACACAUGAGGAUCACCCAUGUGGCCGAGGACCGGUACGGCCGCCACUCGUGUGUUAAUAAAAGAACUGCAAGAUUCUUU [Issoraor] | 0.0783 | – | 0.22 | 0.396 | –
UAAUAGAUUACGGCCGCCACUGAAGUGGACUUUAUGAGCAGGAUUCACAUGAGGAUCACCCAUGUCAGGACCGGGUACGUCCAUA [theeternabot_exclusion_MS2_Trp_B_33] | 0.0256 | – | 0.044 | 0.0443 | –
UACCGGUGACUCGAUACCAGUCCUCUAAAAUACAUGAGGAUCACCCAUGUAACCUUCCCAGACCCUUGGCAGCGACACAUGGAUA [theeternabot_sameState_MS2_Theo_B_49] | 0.0977 | – | 0.176 | – | 0.147
UAGGACAUGAGGAUCACCCAUGUUGUACGGCGAGGACCGGUACGGCCGCCACUCGAGGCGUAAGUAGUAAAGAAUCUGAUUCAAU [theeternabot_sameState_MS2_Trp_A_4] | 0.0137 | – | 0.0409 | 0.0207 | –
UAUAAACAGCCUGGUUACUCGUCGCGCUUGCGAGGACCGGUACGGCCGCCACUCGACCCAUCACAUGAGGAUCACCCAUGUCCCA [theeternabot_exclusion_MS2_Trp_A_25] | 0.0294 | – | 0.045 | 0.0386 | –
UAUACAUGAGGAUCACCCAUGUGCCAUGAUACCAGACAUGAAAAUGUCCCUUGGCAGCAUGGUGAUUGUAUAGCGGGAAACCCGA [Utechov] | 0.0813 | – | 0.261 | – | 0.138
UAUAUAGAUGGAAGUUCUAUAGAUGCAGAAGGAGCGUAGGAAACUACAGGUAGGUCGCUGAGGUACAUGAGGAUCACCCAUGUAG [SSArg A #20 Slice of Pi] | 0.0143 | 0.0264 | 0.0405 | 0.0264 | 0.0225
UAUAUAUAGAUGGAUACCAGCAGAGAAAACGUUUAUCCUAACAUGAGGAUCACCCAUGUAUGCCCUUGGCAGCUGUUUAUAUAUA [8.I] | 0.0189 | – | 0.0315 | – | 0.0226
UAUAUAUAUCACGAACUGUGGUGUAUGUCUCGAGGACCGGUACGGCCGCCACUCGCGCGGCCUCACAUGAGGAUCACCCAUGUUG [XTryp A #6] | 0.0279 | – | 0.0737 | 0.0785 | –
UAUCCACAUGAGGAUCACCCAUGUAAGGAAGGAGCGGUGAAUGAACCAGGUAGGUCGCCUUGGUGAGGAUCAUCUAUGGAUUCGU [Exclusion - Arginine A (Freestyle 10)] | 0.028 | 0.0368 | 0.0659 | 0.0435 | 0.0418
UAUCCACAUGAGGAUCACCCAUGUUAGGAAGGAGCGGUGAAUGCACCAGGUAGGUCGCCUAGCUGAGGACUGUCGGUGGAUUCGU [Exclusion - Arginine A (Freestyle 19)] | 0.033 | 0.0394 | 0.047 | 0.053 | 0.0403
UCACAUGAGGAUCACCCAUGUACAGGCGAUACCAGCCGUACAUUGGGCCCUUGGCAGCGCACCGAGACCUUUAUAAGCACCUCGG [Zaoranorre] | 0.067 | – | 0.207 | – | 0.0157
UCAGAUGAGGCGGCCGCCACUCGCGGAUAACGAUAGAUUAACAUGAGGAUCACCCAUGUGUCAUGGAGGACCGGGCCCAUGACAU [kjmullin] | 0.0238 | – | 0.0423 | 0.0351 | –

Sequence | apparent KD of MS2 coat protein (input ligand: arginine 13.2 mM) [µM] | apparent KD of MS2 coat protein (input ligand: none) [µM] | apparent KD of MS2 coat protein [1] [µM] | apparent KD of MS2 coat protein [2] [µM] | apparent KD of MS2 coat protein [3] [µM]
UCAGUGCAGGGAAGGAGCGGGUACAUGAGGAUCACCCAUGUGCAAGUGGUGAGCGUCCGUGCCCAGGUAGGUCGCCCAGCCUGGU [Atarteedon] | 0.0692 | 0.121 | 0.235 | 0.198 | 0.108
UCCUCCUCCGGAAGGAGGAGGAGUUGCGAUACCAGCCCGGAAACGGGCCCUUGGCAGCGCACAUGAGGAUCACCCAUGUCAUGUU [#1 Exclusion - Theophylline A Attempt #7 (HarryS)] | 0.0167 | – | 0.0263 | – | 0.0188
UCGCUCUGGGUGAGAUCCGGAGAUAUGGAAGGAGCGCUGAUUCCAGCAGGUAGGUCGCCAACGGACAUGAGGAUCACCCAUGUAC [Same State - Arginine A (Freestyle 11)] | 0.0366 | 0.0469 | 0.0604 | 0.0555 | 0.0431
UCGCUCUGGGUGAGAUCCGGAGAUGUGGAAGGAGCGCUGGAAACAGCAGGUAGGUCGCCAACGGACAUGAGGAUCACCCAUGUAC [Same State - Arginine A (Freestyle 19)] | 0.0414 | 0.0444 | 0.0753 | 0.0319 | 0.0815
UCGCUCUGGGUGGAAUCCGGAGAUGUGGAAGGAGCGCUCGAAAGGGCAGGUAGGUCGCCAACGGACAUGAGGAUCACCCAUGUAC [#23 Same State - Arginine A] | 0.0294 | 0.0254 | 0.0375 | 0.0398 | 0.0493
UCGGACAUGAGGAUCACCCAUGUAAAUCCUCGAGGACCGGUACGGCCGCCACUCGAACGAGUGGCACGCGAGUGCGCACUCGCGU [aEa] | 0.0241 | – | 0.0478 | 0.034 | –
UCGGCAGUGAACGAUACCAGCGUCACGUGGCCGGUGGUCACAUGAGGAUCACCCAUGUAACGCCCUUGGCAGCGUGCGCGUACCG [Zaancebi] | 0.0151 | – | 0.0635 | – | 0.0273
UCGGGCAGAGCGGCCGCCACUGUUUGGCAUGCGGAUGAAGGAACAUGAGGAUCACCCAUGUAGAUUAGGACCGGGCUUGCGGAGA [rvcmullin] | 0.0191 | 0.0182 | 0.0221 | 0.0238 | 0.0195
UCGGGCAGAGCGGCCGCCACUGUUUGGCGUGCGGAUGACGGAACAUGAGGAUCACCCAUGUUGAUUAGGACCGGGCUUGCGGAGA [qpqullin] | 0.0113 | 0.0147 | 0.0241 | 0.0138 | 0.0147
UCGUGCAGAGCGGCCGCCACUGUAUUGCGUGCGGAUGACGGAACAUGAGGAUCACCCAUGUUGUUUAGGACCGGGCUUGCCACCA ['xmullin] | 0.0124 | – | 0.0159 | 0.0143 | –
UCGUUGAAGUCGGCCGCCACUGAACUCAUGUUCAACAUGAGGAUCACCCAUGUACCUUAUUUUAACAGGACCGGGACUUUGACGA [JR_ExcTryptoB_Sub002] | 0.113 | – | 0.229 | 0.164 | –
UCGUUUGAGGCGGCCGCCACUGGUCUCAUGGUCAACAUGAGGAUCACCCAUGUAUCUUAGUUAAGCAGGACCGGGCCUCGAGCGA [#18 Exclusion Tryptophan B] | 0.0389 | 0.0727 | 0.105 | 0.0956 | 0.0323
UCUGGUAUGACGGCCGCCACUAGAUCGUGAGAAGCCUGCAUACAUGAGGAUCACCCAUGUCUCACUAGGACCGGGUCAUUCCAAU [theeternabot_sameState_MS2_Trp_B_5] | 0.0538 | – | 0.105 | 0.119 | –
UGAAAGUAGGGAAGGAGCGCUACAACAUGAGGAUCACCCAUGUAAUGAGGAUCACCCAUGUGGCAGGUAGGUCGCCCAAAACAUG [#14 Same State - Arginine B] | 0.085 | 0.167 | 0.151 | 0.197 | 0.181
UGACACAUGAGGAUCACCCAUGUCGCGAAACGAGGACCGGUACGGCCGCCACUCGCACAAACUCCUCUCCAGCACCAGCUUUUAG [theeternabot_sameState_MS2_Trp_A_3] | 0.0154 | – | 0.0282 | 0.0242 | –
UGACAUGAGGAUCACCCAUGUAUAACUGAAGGAGCGUCCAUAAGGACAGGUAGGUCGCGGAAUGAACAGAGUGCACGACAUGUUU [Arg A SS t1] | 0.0128 | 0.0133 | 0.0177 | 0.0143 | 0.0142
UGACGAUACCUGGAUACCAGCGACAUGAGGAUCACCCAUGUAUGAGGAUCAGCCAUGUUAUGCCCUUGGCAGCCACGAAAGUCUU [UUUMULLIN] | 0.0375 | – | 0.115 | – | 0.0403

Source: the supplement of paper PMC9170038
